Publication PMC2576468, “The orthologue of the "acatalytic" mammalian ART4 in chicken is an arginine-specific mono-ADP-ribosyltransferase” (BMC Molecular Biology, 2008)

Substrate: NC(=O)c1ccc[n+]([C@@H]2O[C@H](COP(=O)([O-])OP(=O)(O)OC[C@H]3O[C@@H](n4cnc5c4ncn4ccnc54)[C@H](O)[C@@H]3O)[C@@H](O)[C@H]2O)c1
Test: purified protein
Format: biochemical, Gallus gallus
Details: poly-L-arginine 1 mg/ml as acceptor, PBS pH 7.4, room temperature, glycosylated protein (no PNGase F)

B1: recombinant chicken ART4 (chART4) (Gallus gallus) (protein)
chain: SHLMMDMALHSFDDQYLGCREQMMEELERGDYFQKEIAANKNYSSLWKKAQEALLKSSVGLLREMHDSHATALMAYTMNSSLHSQLNWATSTAGRSPEQYRHNFSFKYFHFYLTTAIQIMKQWQSSKDNVRKRHCYRVHRGVKDLYIKATVGSIVRFGRFTSTSCLWNEAQKFGNETLFTVTTCLGAAMQGFSYYTSEKEVLIPPYEIFLVKNFFRTRRGNRLHLHSVGNYSKYHYQLLEASRIKNGGSTA
notes: N-glycosylated
Km: 1.0 ± 0.18 µM
